From patent publication US20260159579A1 (Pfizer, published 2026)
Changes are numbered by the printed parent chain. “And” between values parts separate entries of the source, which are not always exact repeats. Identical values can stand only once.

T1: Mouse Fc-human GDF15 (Mu IgG1Fc_Fxa_Hu GDF15) (human)
T1 construct: Whole entry is the fusion: mouse IgG1 Fc, FXa site and linker, mature human GDF15; described as dimeric; also called Murine dimeric IgG1 Fc-human GDF-15 with FXa cleavage site; control human GDF15
T1 chain: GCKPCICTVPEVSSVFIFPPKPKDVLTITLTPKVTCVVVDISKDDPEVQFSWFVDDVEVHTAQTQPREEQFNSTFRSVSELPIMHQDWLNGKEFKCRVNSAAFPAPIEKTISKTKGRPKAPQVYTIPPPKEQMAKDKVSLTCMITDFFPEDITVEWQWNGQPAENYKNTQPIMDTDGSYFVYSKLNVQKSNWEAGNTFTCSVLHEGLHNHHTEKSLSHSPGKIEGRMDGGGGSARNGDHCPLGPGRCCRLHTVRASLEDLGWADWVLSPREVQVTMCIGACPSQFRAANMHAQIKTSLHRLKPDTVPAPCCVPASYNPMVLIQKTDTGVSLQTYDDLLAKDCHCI

B1: GDF15_0297 (antibody, mouse IgG1, kappa, V domains shown)
VH: QVQLQQPGAELVKPGASVKMSCKASGYPFEGWYIHWVKQRPGQGLEWMGWNNPRTGLTNHAQKFQGKVTMTRDTSSSTAYMQLSSLTSEDSAVYYCARGVGADAAFDIWGQGTTLTVSS
VL: DIVMTQSPSSLSVSAGEKVTMSCRSSQSLLWKHGYNYLDWYQQKPGQPPKLLIYLDRNRAHGVPDRFTGSGSGTDFTLTISSVQAEDLAVYYCMQSFETPITFGGGTKLEIKR
notes: Tested in bivalent format; also called GDF15_297
B2: GDF15_0301 (antibody, mouse IgG1, kappa, V domains shown)
VH: B1 VH with V68A, M70L, R72V
VL: B1 VL with M4L
notes: Tested in bivalent format; also called GDF15_301; mAB2
B3: GDF15_014 (antibody, human IgG1, kappa, V domains shown)
VH: QVQLVQSGAEVKKPGSSVKVSCKASGYTFSSYNIDWVRQAPGQGLEWMGQINPINGLAFYNQKFQGRVTITADESTSTAYMELSSLRSEDTAVYYCAREAITTVGAMDYWGQGTLVTVSS
VL: EIVLTQSPATLSLSPGERATLSCRTSQNVHNYLAWYQQKPGQAPRLLIYDASNRATGIPARFSGSGSGTDFTLTISSLEPEDFAVYYCQQFWSDPYTFGQGTKVEIKR
notes: Tested in bivalent format
B4: GDF15_004 (antibody, human IgG1, kappa, V domains shown)
VH: B3 VH with I54N, F59N, N61A, V104I
VL: B3 VL with Q27E, N28S, N31S, N53T, T56D
notes: Tested in bivalent format
B5: GDF15_010 (antibody, human IgG1, kappa, V domains shown)
VH: B3 VH with S31D, Q50G, I54N, Y60F
VL: B3 VL with N28S, V29L, N31S, S93N, Y96W
notes: Tested in bivalent format
B6: GDF15_013 (antibody, human IgG1, kappa, V domains shown)
VH: B3 VH with S31D, I34M, Q50G, I54N
VL: B3 VL with Q27E, N28S, N31S, S93N, D94W, Y96W
notes: Tested in bivalent format
B7: GDF15_017 (antibody, human IgG1, kappa, V domains shown)
VH: B3 VH with S30T, S31D, I54N, T91N
VL: B3 VL with N28S, N31S, S52K, N53T, W92S
notes: Tested in bivalent format
B8: GDF15_003 (antibody, human IgG1, kappa, V domains shown)
VH: B3 VH with S30T, I54N, A100Q
VL: B3 VL with T25A, N28S, V29L, H30S, N31S, S52K, T56D, W92S
notes: Tested in bivalent format
B9: GDF15_015 (antibody, human IgG1, kappa, V domains shown)
VH: B3 VH with S31D, I34M, I54N, M107T
VL: B3 VL with N31S, R54L, T56D, W92S, S93N, Y96W
notes: Tested in bivalent format
B10: GDF15_021 (antibody, human IgG1, kappa, V domains shown)
VH: B3 VH with Q50G, A58I, Y60F, Y109H
VL: B3 VL with Q27E, N31S, R54L, T56D
notes: Tested in bivalent format
B11: GDF15_020 (antibody, human IgG1, kappa, V domains shown)
VH: B3 VH with S31D, I34M, I54N, F59N
VL: B3 VL with T25A, V29L, N31S, N53T, T56D
notes: Tested in bivalent format
B12: GDF15_022 (antibody, human IgG1, kappa, V domains shown)
VH: B3 VH with S31D, I54N, A58I, Y60F, A100V
VL: B3 VL with N28S, N31S, S52K, N53T, T56D, W92S
notes: Tested in bivalent format
B13: GDF15_0470 (antibody, human IgG1, kappa, V domains shown)
VH: QVQLVQSGAEVKKPGASVKVSCKASGYPFEGWYIHWVRQAPGQGLEWMGWNNPRTGLTNHAQKFQGRVTMTRDTSISTAYMELSRLRSDDTAVYYCARGVGADAAFDIWGQGTMVTVSS
VL: EIVLTQSPATLSLSPGERATLSCRSSQSLLWKHGYNYLDWYQQKPGQAPRLLIYLDRNRAHGIPARFSGSGSGTDFTLTISSLEPEDFAVYYCMQSFETPITFGQGTKVEIKR
notes: Tested in bivalent format; also called GDF15-470

Target: T1, Mouse Fc-human GDF15 (Mu IgG1Fc_Fxa_Hu …)
Test: SPR BIAcore T200, 37C; Fc-GDF15 captured, IgG as analyte; average of runs
Experimental: (§1) Mouse Fc-human GDF15 (Mu IgG1Fc_Fxa_Hu GDF15; SEQ ID NO:2), Mouse Fc-mouse GDF15 (Mu IgG1Fc_Fxa_Mu GDF15; SEQ ID NO:5) and Mouse Fc-cynomolgus monkey GDF15 (Mu IgG1Fc_Fxa_Cyno GDF15; SEQ ID NO:4) were captured onto three different flow cells of a CM4 sensorchip (catalogue number BR100534, GE Healthcare) surface using the Mouse Antibody Capture Kit (BR100838, GE Healthcare) according to the manufacturer's protocol. The running and sample bufferwas 10 mM HEPES pH 7.4, 0.15M NaCl, 3 mM EDTA, 0.05% P-20 (HBS-EP+). The final capture levels of Mu IgG1Fc_Fxa_Hu GDF15, Mu IgG1Fc_Fxa_Mu GDF15 and Mu IgG1Fc_Fxa_Cyno GDF15 were 40 resonance units (RU), 32 RU and 25 RU respectively. Flow cell 1 was used as a reference flow cell. […] The dissociation was monitored for 2.8 hours and the surface was regenerated with 10 mM Glycine pH 1.7. Binding affinities and rate constants were determined for murine and cynomolgus monkey GDF15 by fitting the resulting sensorgram data to a 1:1 Langmuir model in BIAcore T200 Evaluation software version 2.0 (GE Healthcare).
(§2) Additionally, the binding of clone GDF15_001 to cynomolgus monkey and mouse GDF15 was measured using above mentioned BIAcore assay (Table 7).

Binder | Kd | koff | kon
B1 | < 0.01 nM | 1.19e-05 s⁻¹ | 5.52e+06 M⁻¹ s⁻¹
B2 | < 0.01 nM | 6.97e-06 s⁻¹ | 4.72e+06 M⁻¹ s⁻¹
B3 | < 0.01 nM | 1.64e-05 s⁻¹ | 1.89e+06 M⁻¹ s⁻¹
B4 | 0.037 nM | 7.67e-05 s⁻¹ | 2.09e+06 M⁻¹ s⁻¹
B5 | 0.0157 nM | 1.63e-05 s⁻¹ | 1.1e+06 M⁻¹ s⁻¹
B6 | 0.018 nM | 7.08e-05 s⁻¹ | 4.86e+06 M⁻¹ s⁻¹
B7 | 0.0349 nM | 8.42e-05 s⁻¹ | 2.57e+06 M⁻¹ s⁻¹
B8 | 0.0271 nM | 8.2e-05 s⁻¹ | 3.03e+06 M⁻¹ s⁻¹
B9 | 0.0584 nM | 0.000101 s⁻¹ | 1.74e+06 M⁻¹ s⁻¹
B10 | 0.153 nM | 0.000322 s⁻¹ | 2.09e+06 M⁻¹ s⁻¹
B11 | 0.131 nM | 0.000104 s⁻¹ | 829000 M⁻¹ s⁻¹
B12 | 0.0156 nM | 1.61e-05 s⁻¹ | 1.08e+06 M⁻¹ s⁻¹
B13 | < 0.01 nM | 4.76e-05 s⁻¹ | 1.25e+07 M⁻¹ s⁻¹

Target: T1, Mouse Fc-human GDF15 (Mu IgG1Fc_Fxa_Hu …)
Test: SPR BIAcore T200, 37C; Fc-GDF15 captured, IgG as analyte
Experimental: as §1, §2

Binder | Kd | T½ min | koff | kon
B1 | < 0.01 nM | 1060 min and 895 min | 1.09e-05 s⁻¹ and 1.29e-05 s⁻¹ | 5.54e+06 M⁻¹ s⁻¹ and 5.5e+06 M⁻¹ s⁻¹
B2 | < 0.01 nM |  |  | 3.36e+06 M⁻¹ s⁻¹ and 5.58e+06 M⁻¹ s⁻¹ and 5.22e+06 M⁻¹ s⁻¹
B3 | < 0.01 nM | 645 min and 780 min | 1.79e-05 s⁻¹ and 1.48e-05 s⁻¹ | 1.88e+06 M⁻¹ s⁻¹ and 1.9e+06 M⁻¹ s⁻¹
B4 | 0.0322 nM and 0.0419 nM | 162 min and 141 min | 7.14e-05 s⁻¹ and 8.2e-05 s⁻¹ | 2.22e+06 M⁻¹ s⁻¹ and 1.96e+06 M⁻¹ s⁻¹
B5 | 0.0113 nM and 0.0201 nM | 784 min and 649 min | 1.47e-05 s⁻¹ and 1.78e-05 s⁻¹ | 1.31e+06 M⁻¹ s⁻¹ and 885000 M⁻¹ s⁻¹
B6 | 0.0275 nM and 0.0103 nM | 173 min and 154 min | 6.66e-05 s⁻¹ and 7.51e-05 s⁻¹ | 
B7 | 0.0267 nM and 0.043 nM | 141 min and 133 min | 8.18e-05 s⁻¹ and 8.66e-05 s⁻¹ | 1.9e+06 M⁻¹ s⁻¹ and 3.24e+06 M⁻¹ s⁻¹
B8 | 0.0274 nM and 0.0268 nM | 160 min and 126 min | 7.22e-05 s⁻¹ and 9.19e-05 s⁻¹ | 2.64e+06 M⁻¹ s⁻¹ and 3.43e+06 M⁻¹ s⁻¹
B9 | 0.0594 nM and 0.0573 nM | 116 min and 112 min | 9.93e-05 s⁻¹ and 0.000104 s⁻¹ | 1.67e+06 M⁻¹ s⁻¹ and 1.81e+06 M⁻¹ s⁻¹
B10 | 0.142 nM and 0.165 nM | 39.6 min and 32.8 min | 0.000291 s⁻¹ and 0.000352 s⁻¹ | 2.05e+06 M⁻¹ s⁻¹ and 2.14e+06 M⁻¹ s⁻¹
B11 | 0.0974 nM and 0.165 nM | 122 min and 102 min | 9.46e-05 s⁻¹ and 0.000113 s⁻¹ | 972000 M⁻¹ s⁻¹ and 686000 M⁻¹ s⁻¹
B12 | 0.0132 nM and 0.0179 nM | 654 min and 795 min | 1.77e-05 s⁻¹ and 1.45e-05 s⁻¹ | 1.34e+06 M⁻¹ s⁻¹ and 813000 M⁻¹ s⁻¹
B13 | < 0.01 nM | 222 min and 268 min | 5.21e-05 s⁻¹ and 4.3e-05 s⁻¹ | 1.2e+07 M⁻¹ s⁻¹ and 1.3e+07 M⁻¹ s⁻¹

Target: T1, Mouse Fc-human GDF15 (Mu IgG1Fc_Fxa_Hu …)
Test: SPR BIAcore T200; summary sentence for the clones of Table 6
Experimental: as §1, §2

Binder | Kd
B1 | < 0.15 nM
B2 | < 0.15 nM
B10 | < 0.15 nM
B11 | < 0.15 nM
B12 | < 0.15 nM
B13 | < 0.15 nM
